*1 amine or outer side, *2 acyl side, *3 side chain or, on linkers, in order; H or OH if unused. Where no end group is shown, it is not given here. Side-chain parts run from the residue outwards. [ ]: non-standard residue; d: D form. The star is where a group is joined. γGlu = O=C(O)[C@H](CCC(=O)[*:2])N[*:1]; Palmitoyl = CCCCCCCCCCCCCCCC(=O)*; Decanoyl = CCCCCCCCCC(=O)*; Aib = CC(C)(N)C(=O)O
B1: Compound no. 11 (peptide)
peptide: HXDGTFISDYKTILDNLAARDFINWLIQTKITK
modifications: Aib at 2; K(γGlu-C16) at 11; C-terminus -OH
B2: Compound no. 5 (peptide)
peptide: Palmitoyl-H[Aib]DGTFISDYST[Aib]LDNLAARDFINWLIQTKITK-OH
SMILES: CCCCCCCCCCCCCCCC(=O)N[C@@H](Cc1c[nH]cn1)C(=O)NC(C)(C)C(=O)N[C@@H](CC(=O)O)C(=O)NCC(=O)N[C@H](C(=O)N[C@@H](Cc1ccccc1)C(=O)N[C@H](C(=O)N[C@@H](CO)C(=O)N[C@@H](CC(=O)O)C(=O)N[C@@H](Cc1ccc(O)cc1)C(=O)N[C@@H](CO)C(=O)N[C@H](C(=O)NC(C)(C)C(=O)N[C@@H](CC(C)C)C(=O)N[C@@H](CC(=O)O)C(=O)N[C@@H](CC(N)=O)C(=O)N[C@@H](CC(C)C)C(=O)N[C@@H](C)C(=O)N[C@@H](C)C(=O)N[C@@H](CCCNC(=N)N)C(=O)N[C@@H](CC(=O)O)C(=O)N[C@@H](Cc1ccccc1)C(=O)N[C@H](C(=O)N[C@@H](CC(N)=O)C(=O)N[C@@H](Cc1c[nH]c2ccccc12)C(=O)N[C@@H](CC(C)C)C(=O)N[C@H](C(=O)N[C@@H](CCC(N)=O)C(=O)N[C@H](C(=O)N[C@@H](CCCCN)C(=O)N[C@H](C(=O)N[C@H](C(=O)N[C@@H](CCCCN)C(=O)O)[C@@H](C)O)[C@@H](C)CC)[C@@H](C)O)[C@@H](C)CC)[C@@H](C)CC)[C@@H](C)O)[C@@H](C)CC)[C@@H](C)O
B3: Compound no. 44 (peptide)
peptide: Decanoyl-H[Aib]DGTFISDYST[Aib]LDNLAARDFINWLIQTKITK-OH
SMILES: CCCCCCCCCC(=O)N[C@@H](Cc1c[nH]cn1)C(=O)NC(C)(C)C(=O)N[C@@H](CC(=O)O)C(=O)NCC(=O)N[C@H](C(=O)N[C@@H](Cc1ccccc1)C(=O)N[C@H](C(=O)N[C@@H](CO)C(=O)N[C@@H](CC(=O)O)C(=O)N[C@@H](Cc1ccc(O)cc1)C(=O)N[C@@H](CO)C(=O)N[C@H](C(=O)NC(C)(C)C(=O)N[C@@H](CC(C)C)C(=O)N[C@@H](CC(=O)O)C(=O)N[C@@H](CC(N)=O)C(=O)N[C@@H](CC(C)C)C(=O)N[C@@H](C)C(=O)N[C@@H](C)C(=O)N[C@@H](CCCNC(=N)N)C(=O)N[C@@H](CC(=O)O)C(=O)N[C@@H](Cc1ccccc1)C(=O)N[C@H](C(=O)N[C@@H](CC(N)=O)C(=O)N[C@@H](Cc1c[nH]c2ccccc12)C(=O)N[C@@H](CC(C)C)C(=O)N[C@H](C(=O)N[C@@H](CCC(N)=O)C(=O)N[C@H](C(=O)N[C@@H](CCCCN)C(=O)N[C@H](C(=O)N[C@H](C(=O)N[C@@H](CCCCN)C(=O)O)[C@@H](C)O)[C@@H](C)CC)[C@@H](C)O)[C@@H](C)CC)[C@@H](C)CC)[C@@H](C)O)[C@@H](C)CC)[C@@H](C)O
B4: Compound no. 8 (peptide)
peptide: Palmitoyl-H[Aib]DGTFISDYSTILDNLAARDFIEWLIQTKIT-OH
SMILES: CCCCCCCCCCCCCCCC(=O)N[C@@H](Cc1c[nH]cn1)C(=O)NC(C)(C)C(=O)N[C@@H](CC(=O)O)C(=O)NCC(=O)N[C@H](C(=O)N[C@@H](Cc1ccccc1)C(=O)N[C@H](C(=O)N[C@@H](CO)C(=O)N[C@@H](CC(=O)O)C(=O)N[C@@H](Cc1ccc(O)cc1)C(=O)N[C@@H](CO)C(=O)N[C@H](C(=O)N[C@H](C(=O)N[C@@H](CC(C)C)C(=O)N[C@@H](CC(=O)O)C(=O)N[C@@H](CC(N)=O)C(=O)N[C@@H](CC(C)C)C(=O)N[C@@H](C)C(=O)N[C@@H](C)C(=O)N[C@@H](CCCNC(=N)N)C(=O)N[C@@H](CC(=O)O)C(=O)N[C@@H](Cc1ccccc1)C(=O)N[C@H](C(=O)N[C@@H](CCC(=O)O)C(=O)N[C@@H](Cc1c[nH]c2ccccc12)C(=O)N[C@@H](CC(C)C)C(=O)N[C@H](C(=O)N[C@@H](CCC(N)=O)C(=O)N[C@H](C(=O)N[C@@H](CCCCN)C(=O)N[C@H](C(=O)N[C@H](C(=O)O)[C@@H](C)O)[C@@H](C)CC)[C@@H](C)O)[C@@H](C)CC)[C@@H](C)CC)[C@@H](C)CC)[C@@H](C)O)[C@@H](C)CC)[C@@H](C)O
B5: Compound no. 10 (peptide)
peptide: H[Aib]DGTFK([γGlu-Palmitoyl])SDYSTILDNLAARDFINWLIQTKITK-OH
modifications: N-terminus assumed
SMILES: CCCCCCCCCCCCCCCC(=O)N[C@@H](CCC(=O)NCCCC[C@H](NC(=O)[C@H](Cc1ccccc1)NC(=O)[C@@H](NC(=O)CNC(=O)[C@H](CC(=O)O)NC(=O)C(C)(C)NC(=O)[C@@H](N)Cc1c[nH]cn1)[C@@H](C)O)C(=O)N[C@@H](CO)C(=O)N[C@@H](CC(=O)O)C(=O)N[C@@H](Cc1ccc(O)cc1)C(=O)N[C@@H](CO)C(=O)N[C@H](C(=O)N[C@H](C(=O)N[C@@H](CC(C)C)C(=O)N[C@@H](CC(=O)O)C(=O)N[C@@H](CC(N)=O)C(=O)N[C@@H](CC(C)C)C(=O)N[C@@H](C)C(=O)N[C@@H](C)C(=O)N[C@@H](CCCNC(=N)N)C(=O)N[C@@H](CC(=O)O)C(=O)N[C@@H](Cc1ccccc1)C(=O)N[C@H](C(=O)N[C@@H](CC(N)=O)C(=O)N[C@@H](Cc1c[nH]c2ccccc12)C(=O)N[C@@H](CC(C)C)C(=O)N[C@H](C(=O)N[C@@H](CCC(N)=O)C(=O)N[C@H](C(=O)N[C@@H](CCCCN)C(=O)N[C@H](C(=O)N[C@H](C(=O)N[C@@H](CCCCN)C(=O)O)[C@@H](C)O)[C@@H](C)CC)[C@@H](C)O)[C@@H](C)CC)[C@@H](C)CC)[C@@H](C)CC)[C@@H](C)O)C(=O)O
B6: Compound no. 6 (peptide)
peptide: Palmitoyl-H[Aib]DGTFISDYSTILD[Aib]LAARDFINWLIQTKITK-OH
SMILES: CCCCCCCCCCCCCCCC(=O)N[C@@H](Cc1c[nH]cn1)C(=O)NC(C)(C)C(=O)N[C@@H](CC(=O)O)C(=O)NCC(=O)N[C@H](C(=O)N[C@@H](Cc1ccccc1)C(=O)N[C@H](C(=O)N[C@@H](CO)C(=O)N[C@@H](CC(=O)O)C(=O)N[C@@H](Cc1ccc(O)cc1)C(=O)N[C@@H](CO)C(=O)N[C@H](C(=O)N[C@H](C(=O)N[C@@H](CC(C)C)C(=O)N[C@@H](CC(=O)O)C(=O)NC(C)(C)C(=O)N[C@@H](CC(C)C)C(=O)N[C@@H](C)C(=O)N[C@@H](C)C(=O)N[C@@H](CCCNC(=N)N)C(=O)N[C@@H](CC(=O)O)C(=O)N[C@@H](Cc1ccccc1)C(=O)N[C@H](C(=O)N[C@@H](CC(N)=O)C(=O)N[C@@H](Cc1c[nH]c2ccccc12)C(=O)N[C@@H](CC(C)C)C(=O)N[C@H](C(=O)N[C@@H](CCC(N)=O)C(=O)N[C@H](C(=O)N[C@@H](CCCCN)C(=O)N[C@H](C(=O)N[C@H](C(=O)N[C@@H](CCCCN)C(=O)O)[C@@H](C)O)[C@@H](C)CC)[C@@H](C)O)[C@@H](C)CC)[C@@H](C)CC)[C@@H](C)CC)[C@@H](C)O)[C@@H](C)CC)[C@@H](C)O
B7: Compound no. 31 (peptide)
peptide: H[Aib]DGTFISDYK([γGlu-Decanoyl])TILDKLAARDFIEWLIATKITK-OH
modifications: N-terminus assumed
SMILES: CCCCCCCCCC(=O)N[C@@H](CCC(=O)NCCCC[C@H](NC(=O)[C@H](Cc1ccc(O)cc1)NC(=O)[C@H](CC(=O)O)NC(=O)[C@H](CO)NC(=O)[C@@H](NC(=O)[C@H](Cc1ccccc1)NC(=O)[C@@H](NC(=O)CNC(=O)[C@H](CC(=O)O)NC(=O)C(C)(C)NC(=O)[C@@H](N)Cc1c[nH]cn1)[C@@H](C)O)[C@@H](C)CC)C(=O)N[C@H](C(=O)N[C@H](C(=O)N[C@@H](CC(C)C)C(=O)N[C@@H](CC(=O)O)C(=O)N[C@@H](CCCCN)C(=O)N[C@@H](CC(C)C)C(=O)N[C@@H](C)C(=O)N[C@@H](C)C(=O)N[C@@H](CCCNC(=N)N)C(=O)N[C@@H](CC(=O)O)C(=O)N[C@@H](Cc1ccccc1)C(=O)N[C@H](C(=O)N[C@@H](CCC(=O)O)C(=O)N[C@@H](Cc1c[nH]c2ccccc12)C(=O)N[C@@H](CC(C)C)C(=O)N[C@H](C(=O)N[C@@H](C)C(=O)N[C@H](C(=O)N[C@@H](CCCCN)C(=O)N[C@H](C(=O)N[C@H](C(=O)N[C@@H](CCCCN)C(=O)O)[C@@H](C)O)[C@@H](C)CC)[C@@H](C)O)[C@@H](C)CC)[C@@H](C)CC)[C@@H](C)CC)[C@@H](C)O)C(=O)O
B8: Compound no. 7 (peptide)
peptide: Palmitoyl-H[Aib]DGTFISDYSTILDNLAARDFIEWLIQTKITK-OH
SMILES: CCCCCCCCCCCCCCCC(=O)N[C@@H](Cc1c[nH]cn1)C(=O)NC(C)(C)C(=O)N[C@@H](CC(=O)O)C(=O)NCC(=O)N[C@H](C(=O)N[C@@H](Cc1ccccc1)C(=O)N[C@H](C(=O)N[C@@H](CO)C(=O)N[C@@H](CC(=O)O)C(=O)N[C@@H](Cc1ccc(O)cc1)C(=O)N[C@@H](CO)C(=O)N[C@H](C(=O)N[C@H](C(=O)N[C@@H](CC(C)C)C(=O)N[C@@H](CC(=O)O)C(=O)N[C@@H](CC(N)=O)C(=O)N[C@@H](CC(C)C)C(=O)N[C@@H](C)C(=O)N[C@@H](C)C(=O)N[C@@H](CCCNC(=N)N)C(=O)N[C@@H](CC(=O)O)C(=O)N[C@@H](Cc1ccccc1)C(=O)N[C@H](C(=O)N[C@@H](CCC(=O)O)C(=O)N[C@@H](Cc1c[nH]c2ccccc12)C(=O)N[C@@H](CC(C)C)C(=O)N[C@H](C(=O)N[C@@H](CCC(N)=O)C(=O)N[C@H](C(=O)N[C@@H](CCCCN)C(=O)N[C@H](C(=O)N[C@H](C(=O)N[C@@H](CCCCN)C(=O)O)[C@@H](C)O)[C@@H](C)CC)[C@@H](C)O)[C@@H](C)CC)[C@@H](C)CC)[C@@H](C)CC)[C@@H](C)O)[C@@H](C)CC)[C@@H](C)O

Molecular target: human GLP-1R (GLP-1 receptor) (human, UniProt P43220 24-463)
Test: cell-based or functional assay

Binder | cAMP assay: Efficacy GLP-1R [%] | cAMP assay: EC50 (nM) GLP-1R [nM] | cAMP assay: logEC50 GLP-1R
B1 | 11 |  | 
B2 | 6 |  | 
B3 | 19 |  | 
B4 | 19 | 10 | 8
B5 | 10 | 100 | 7
B6 | 34 | 39.8 | 7.4
B7 | 6 | 39.8 | 7.4
B8 | 13 | 39.8 | 7.4
